Source: US20260374828

Target: Keap1 Kelch domain, Q14145
Assay: other TR-FRET
Conditions: modification not given

Sequence of Keap1 Kelch domain, Q14145 (Q14145 whole entry, the tested form may be a part): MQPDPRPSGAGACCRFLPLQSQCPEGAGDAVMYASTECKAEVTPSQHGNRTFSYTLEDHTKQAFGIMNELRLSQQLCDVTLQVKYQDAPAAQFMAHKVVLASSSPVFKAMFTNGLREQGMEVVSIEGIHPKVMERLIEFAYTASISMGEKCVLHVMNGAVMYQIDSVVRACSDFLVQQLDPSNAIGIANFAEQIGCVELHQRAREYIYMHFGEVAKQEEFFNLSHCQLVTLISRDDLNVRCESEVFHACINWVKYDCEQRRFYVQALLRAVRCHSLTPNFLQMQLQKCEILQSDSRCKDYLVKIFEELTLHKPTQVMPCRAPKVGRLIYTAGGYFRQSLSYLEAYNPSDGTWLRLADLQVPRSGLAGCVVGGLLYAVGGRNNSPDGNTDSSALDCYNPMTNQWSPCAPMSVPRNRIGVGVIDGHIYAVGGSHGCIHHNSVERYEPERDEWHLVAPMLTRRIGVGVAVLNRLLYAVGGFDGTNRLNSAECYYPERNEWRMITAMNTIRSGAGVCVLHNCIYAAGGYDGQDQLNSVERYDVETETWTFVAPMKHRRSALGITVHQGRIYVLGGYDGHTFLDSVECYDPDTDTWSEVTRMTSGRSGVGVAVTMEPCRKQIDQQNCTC

Binder	IC50
RRDELEPLTGFRR [Peptide 1-3]	38.8 nM
DELEPLTGFRRR [Peptide 1-8]	40.4 nM

Now those with a lower IC50, led by results:

IC50	Binder
14.7 nM	RDELEPLTGFRRR [Peptide 1-9]
6.2 nM	DELEPLTGFRR [Peptide 1-7]
